According to patent US10941182 (Amgen, dated 2021):
Starred links: 1 amine or outer side, 2 acyl side, 3 side chain; linkers in the order of their positions; H or OH if unused. Non-standard residues stand in square brackets, D forms with d. *: point of attachment. dBip = N[C@H](Cc1ccc(-c2ccccc2)cc1)C(=O)O; Oic = O=C(O)[C@@H]1C[C@@H]2CCCC[C@@H]2N1; Phe(4-Cl) = N[C@@H](Cc1ccc(Cl)cc1)C(=O)O; dPhe(4-Cl) = N[C@H](Cc1ccc(Cl)cc1)C(=O)O; Phe(4-I) = N[C@@H](Cc1ccc(I)cc1)C(=O)O; γGlu = O=C(O)[C@H](CCC(=O)[*:2])N[*:1]; NMeR = CN[C@@H](CCCNC(=N)N)C(=O)O; Tridecanoyl = CCCCCCCCCCCCC(=O)*; hArg = N=C(N)NCCCC[C@H](N)C(=O)O; Cha = N[C@@H](CC1CCCCC1)C(=O)O; NMeL = CN[C@@H](CC(C)C)C(=O)O; Tle = CC(C)(C)[C@H](N)C(=O)O; β3hP = O=C(O)C[C@@H]1CCCN1; Nle = CCCC[C@H](N)C(=O)O; Orn = NCCC[C@H](N)C(=O)O; Deg = CCC(N)(CC)C(=O)O; AEEA = NCCOCCOCC(=O)O; Aib = CC(C)(N)C(=O)O; BLeu = β-leucine

T1: human APJ receptor (human, UniProt P35414 1-380)
T1 sequence (looked up): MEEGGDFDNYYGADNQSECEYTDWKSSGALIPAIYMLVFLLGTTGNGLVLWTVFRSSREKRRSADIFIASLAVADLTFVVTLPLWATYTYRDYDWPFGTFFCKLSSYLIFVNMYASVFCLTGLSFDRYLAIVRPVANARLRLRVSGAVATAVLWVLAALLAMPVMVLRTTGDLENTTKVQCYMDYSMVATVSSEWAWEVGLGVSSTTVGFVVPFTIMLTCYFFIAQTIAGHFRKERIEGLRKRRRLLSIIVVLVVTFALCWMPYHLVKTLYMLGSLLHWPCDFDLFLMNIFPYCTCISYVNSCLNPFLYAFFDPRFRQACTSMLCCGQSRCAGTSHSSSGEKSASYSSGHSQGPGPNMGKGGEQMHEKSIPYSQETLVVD

T2: rat APJ receptor (rat, UniProt Q9JHG3 1-377)
T2 sequence (looked up): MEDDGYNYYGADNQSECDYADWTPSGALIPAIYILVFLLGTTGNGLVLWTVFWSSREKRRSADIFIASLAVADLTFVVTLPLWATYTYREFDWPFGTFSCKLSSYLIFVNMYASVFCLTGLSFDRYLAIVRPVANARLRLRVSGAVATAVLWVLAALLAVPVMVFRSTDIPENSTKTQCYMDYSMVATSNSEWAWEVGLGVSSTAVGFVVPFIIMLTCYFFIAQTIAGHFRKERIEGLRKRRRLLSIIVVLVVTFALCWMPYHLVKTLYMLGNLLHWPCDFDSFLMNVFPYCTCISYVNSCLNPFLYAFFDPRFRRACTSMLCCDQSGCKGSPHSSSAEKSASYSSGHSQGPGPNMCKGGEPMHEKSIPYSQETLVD

B1: Apelin polypeptide SEQ ID NO: 297 (peptide)
peptide: Tridecanoyl-[γGlu][AEEA][AEEA][Orn]F[hArg][hArg]Q[NMeR]P[NMeR][Cha]SHKG[Oic][Nle]P[Phe(4-Cl)]-OH
SMILES: CCCCCCCCCCCCC(=O)N[C@@H](CCC(=O)NCCOCCOCC(=O)NCCOCCOCC(=O)N[C@@H](CCCN)C(=O)N[C@@H](Cc1ccccc1)C(=O)N[C@@H](CCCCNC(=N)N)C(=O)N[C@@H](CCCCNC(=N)N)C(=O)N[C@@H](CCC(N)=O)C(=O)N(C)[C@@H](CCCNC(=N)N)C(=O)N1CCC[C@H]1C(=O)N(C)[C@@H](CCCNC(=N)N)C(=O)N[C@@H](CC1CCCCC1)C(=O)N[C@@H](CO)C(=O)N[C@@H](Cc1c[nH]cn1)C(=O)N[C@@H](CCCCN)C(=O)NCC(=O)N1[C@H](C(=O)N[C@@H](CCCC)C(=O)N2CCC[C@H]2C(=O)N[C@@H](Cc2ccc(Cl)cc2)C(=O)O)C[C@@H]2CCCC[C@@H]21)C(=O)O
B2: Apelin polypeptide SEQ ID NO: 550 (peptide)
peptide: Tridecanoyl-[γGlu][AEEA][AEEA]Q[β3hP][NMeR][Cha]SHKG[Oic][Nle][Aib][Phe(4-Cl)]-OH
SMILES: CCCCCCCCCCCCC(=O)N[C@@H](CCC(=O)NCCOCCOCC(=O)NCCOCCOCC(=O)N[C@@H](CCC(N)=O)C(=O)N1CCC[C@H]1CC(=O)N(C)[C@@H](CCCNC(=N)N)C(=O)N[C@@H](CC1CCCCC1)C(=O)N[C@@H](CO)C(=O)N[C@@H](Cc1c[nH]cn1)C(=O)N[C@@H](CCCCN)C(=O)NCC(=O)N1[C@H](C(=O)N[C@@H](CCCC)C(=O)NC(C)(C)C(=O)N[C@@H](Cc2ccc(Cl)cc2)C(=O)O)C[C@@H]2CCCC[C@@H]21)C(=O)O
B3: Apelin polypeptide SEQ ID NO: 557 (peptide)
peptide: Tridecanoyl-[γGlu][AEEA][AEEA][Tle][hArg]P[dR][Cha]SHKG[Oic][Nle]P[Phe(4-Cl)]-OH
SMILES: CCCCCCCCCCCCC(=O)N[C@@H](CCC(=O)NCCOCCOCC(=O)NCCOCCOCC(=O)N[C@H](C(=O)N[C@@H](CCCCNC(=N)N)C(=O)N1CCC[C@H]1C(=O)N[C@H](CCCNC(=N)N)C(=O)N[C@@H](CC1CCCCC1)C(=O)N[C@@H](CO)C(=O)N[C@@H](Cc1c[nH]cn1)C(=O)N[C@@H](CCCCN)C(=O)NCC(=O)N1[C@H](C(=O)N[C@@H](CCCC)C(=O)N2CCC[C@H]2C(=O)N[C@@H](Cc2ccc(Cl)cc2)C(=O)O)C[C@@H]2CCCC[C@@H]21)C(C)(C)C)C(=O)O
B4: Apelin polypeptide SEQ ID NO: 455 (peptide)
peptide: Tridecanoyl-[γGlu][AEEA][AEEA][dQ][hArg][Deg][dR][Cha]SHKG[Oic][Nle]P[Phe(4-Cl)]-OH
SMILES: CCCCCCCCCCCCC(=O)N[C@@H](CCC(=O)NCCOCCOCC(=O)NCCOCCOCC(=O)N[C@H](CCC(N)=O)C(=O)N[C@@H](CCCCNC(=N)N)C(=O)NC(CC)(CC)C(=O)N[C@H](CCCNC(=N)N)C(=O)N[C@@H](CC1CCCCC1)C(=O)N[C@@H](CO)C(=O)N[C@@H](Cc1c[nH]cn1)C(=O)N[C@@H](CCCCN)C(=O)NCC(=O)N1[C@H](C(=O)N[C@@H](CCCC)C(=O)N2CCC[C@H]2C(=O)N[C@@H](Cc2ccc(Cl)cc2)C(=O)O)C[C@@H]2CCCC[C@@H]21)C(=O)O
B5: Apelin polypeptide SEQ ID NO: 301 (peptide)
peptide: Tridecanoyl-[γGlu][AEEA][AEEA][dQ][hArg][β3hP][NMeR][Cha]SHKG[Oic][Nle]P[dPhe(4-Cl)]-OH
SMILES: CCCCCCCCCCCCC(=O)N[C@@H](CCC(=O)NCCOCCOCC(=O)NCCOCCOCC(=O)N[C@H](CCC(N)=O)C(=O)N[C@@H](CCCCNC(=N)N)C(=O)N1CCC[C@H]1CC(=O)N(C)[C@@H](CCCNC(=N)N)C(=O)N[C@@H](CC1CCCCC1)C(=O)N[C@@H](CO)C(=O)N[C@@H](Cc1c[nH]cn1)C(=O)N[C@@H](CCCCN)C(=O)NCC(=O)N1[C@H](C(=O)N[C@@H](CCCC)C(=O)N2CCC[C@H]2C(=O)N[C@H](Cc2ccc(Cl)cc2)C(=O)O)C[C@@H]2CCCC[C@@H]21)C(=O)O
B6: Apelin polypeptide SEQ ID NO: 442 (peptide)
peptide: Tridecanoyl-[γGlu][AEEA][AEEA][Tle]RP[NMeR][Cha]SHKG[Oic][Nle]P[Phe(4-Cl)]-OH
SMILES: CCCCCCCCCCCCC(=O)N[C@@H](CCC(=O)NCCOCCOCC(=O)NCCOCCOCC(=O)N[C@H](C(=O)N[C@@H](CCCNC(=N)N)C(=O)N1CCC[C@H]1C(=O)N(C)[C@@H](CCCNC(=N)N)C(=O)N[C@@H](CC1CCCCC1)C(=O)N[C@@H](CO)C(=O)N[C@@H](Cc1c[nH]cn1)C(=O)N[C@@H](CCCCN)C(=O)NCC(=O)N1[C@H](C(=O)N[C@@H](CCCC)C(=O)N2CCC[C@H]2C(=O)N[C@@H](Cc2ccc(Cl)cc2)C(=O)O)C[C@@H]2CCCC[C@@H]21)C(C)(C)C)C(=O)O
B7: Apelin polypeptide SEQ ID NO: 314 (peptide)
peptide: Tridecanoyl-[γGlu][AEEA][AEEA][Nle][dR]Q[hArg]P[dR][NMeL]SHKG[Oic][Phe(4-I)]P[dBip]-OH
SMILES: CCCCCCCCCCCCC(=O)N[C@@H](CCC(=O)NCCOCCOCC(=O)NCCOCCOCC(=O)N[C@@H](CCCC)C(=O)N[C@H](CCCNC(=N)N)C(=O)N[C@@H](CCC(N)=O)C(=O)N[C@@H](CCCCNC(=N)N)C(=O)N1CCC[C@H]1C(=O)N[C@H](CCCNC(=N)N)C(=O)N(C)[C@@H](CC(C)C)C(=O)N[C@@H](CO)C(=O)N[C@@H](Cc1c[nH]cn1)C(=O)N[C@@H](CCCCN)C(=O)NCC(=O)N1[C@H](C(=O)N[C@@H](Cc2ccc(I)cc2)C(=O)N2CCC[C@H]2C(=O)N[C@H](Cc2ccc(-c3ccccc3)cc2)C(=O)O)C[C@@H]2CCCC[C@@H]21)C(=O)O
B8: Apelin polypeptide SEQ ID NO: 292 (peptide)
peptide: Tridecanoyl-[γGlu][AEEA][AEEA][dL][hArg]P[NMeR][Cha]SHKG[Oic][Nle]P[dPhe(4-Cl)]-OH
SMILES: CCCCCCCCCCCCC(=O)N[C@@H](CCC(=O)NCCOCCOCC(=O)NCCOCCOCC(=O)N[C@H](CC(C)C)C(=O)N[C@@H](CCCCNC(=N)N)C(=O)N1CCC[C@H]1C(=O)N(C)[C@@H](CCCNC(=N)N)C(=O)N[C@@H](CC1CCCCC1)C(=O)N[C@@H](CO)C(=O)N[C@@H](Cc1c[nH]cn1)C(=O)N[C@@H](CCCCN)C(=O)NCC(=O)N1[C@H](C(=O)N[C@@H](CCCC)C(=O)N2CCC[C@H]2C(=O)N[C@H](Cc2ccc(Cl)cc2)C(=O)O)C[C@@H]2CCCC[C@@H]21)C(=O)O

What follows are binders tested against T1, human APJ receptor (assay: cell-based or functional assay).

Going from B1 to B2, the “EC50 Human APJ Receptor (GTPγS assay)” value rises from 0.698 nM to 94.8 nM (140-fold).

First: B3
Second: B4
The “EC50 Human APJ Receptor (GTPγS assay)” value of the first is 2.5-fold higher: 6.12 nM for the first, 2.48 nM for the second.

Compared with B5, Tridecanoyl-[γGlu][AEEA][AEEA][Orn]F[hArg][hArg][BLeu][hArg]P[hArg][Cha]SHKG[Oic][Nle]P[Phe(4-Cl)]-OH [Apelin polypeptide SEQ ID NO: 307] is 120-fold lower in “EC50 Human APJ Receptor (GTPγS assay)” value: 36 nM for the first, 0.305 nM for the second.

B6 and B7 are within 1.5-fold of each other in “EC50 Human APJ Receptor (GTPγS assay)” value: 2 nM for the first, 2.77 nM for the second.

B8 was tested, and the “EC50 Human APJ Receptor (GTPγS assay)” value was 5.78 nM.

These binders were tested against T2, rat APJ receptor (assay: cell-based or functional assay).

First: B1
Second: B2
The “EC50 Rat APJ Receptor (GTPγS assay)” value of the first is 130-fold lower: 1.02 nM for the first, 135 nM for the second.

B3 and B4 are within 1.5-fold of each other in “EC50 Rat APJ Receptor (GTPγS assay)” value: 10.4 nM for the first, 10.3 nM for the second.

Going from B5 to Tridecanoyl-[γGlu][AEEA][AEEA][Orn]F[hArg][hArg][BLeu][hArg]P[hArg][Cha]SHKG[Oic][Nle]P[Phe(4-Cl)]-OH [Apelin polypeptide SEQ ID NO: 307], the “EC50 Rat APJ Receptor (GTPγS assay)” value falls from 29 nM to 0.31 nM (94-fold).

First: B6
Second: B7
The “EC50 Rat APJ Receptor (GTPγS assay)” value of the first is 3.2-fold lower: 2.16 nM for the first, 6.81 nM for the second.

In the case of B8, the “EC50 Rat APJ Receptor (GTPγS assay)” value is reported as 6.68 nM.
